# According to patent US20040203101A1:
# Target: rat nerve growth factor gamma (rat)
# Experiment: kinetic constants for the interaction of BAIT with proteinases; method not described
# Chain of human BAIT (Brain-Associated Inhibitor of Tissue-Type Plasminogen Activator), mature protein expressed in baculovirus/Sf9 cells and purified (Q99574 19-410): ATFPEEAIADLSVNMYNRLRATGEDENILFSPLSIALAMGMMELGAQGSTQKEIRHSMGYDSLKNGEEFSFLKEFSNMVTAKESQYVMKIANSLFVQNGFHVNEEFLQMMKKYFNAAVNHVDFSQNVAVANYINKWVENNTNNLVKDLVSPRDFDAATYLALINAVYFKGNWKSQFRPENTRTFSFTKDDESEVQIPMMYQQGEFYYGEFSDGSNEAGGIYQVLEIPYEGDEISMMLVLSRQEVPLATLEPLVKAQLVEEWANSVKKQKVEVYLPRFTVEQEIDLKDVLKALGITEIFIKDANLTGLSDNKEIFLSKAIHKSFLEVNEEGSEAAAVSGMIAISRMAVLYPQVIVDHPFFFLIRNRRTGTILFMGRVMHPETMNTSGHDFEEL
substance,measurement,value
"human BAIT (Brain-Associated Inhibitor of Tissue-Type Plasminogen Activator), mature protein expressed in baculovirus/Sf9 cells and purified (from UniProt Q99574 19-410)",K,1.3 µM
same,k,0.0086 s⁻¹
same,ki,6500 M⁻¹ s⁻¹
